Where “and” joins values, the source holds several entries; their conditions need not be identical. Identical values can stand only once.
What was measured:
[1] = biological target: LS-Spy-rTT-FP8v1/PEG2 nanoparticle carrier (HIV-1); test: isothermal titration calorimetry (ITC), Fab against conjugate
[2] = biological target: FP-rTT monomer (HIV-1 Env fusion peptides conjugated to monomeric rTT) (HIV-1); test: as above

VRC34.01 Fab
competent Fab binding sites per entity (ITC stoichiometry) (binding sites per nanoparticle carrier) [1]: 152 and 402
competent Fab binding sites per entity (ITC stoichiometry) (binding sites per FP-rTT monomer) [2]: 6
